This data set relates to Saccharomyces cerevisiae. Nature of the data set: transcriptional activation domain activity (GFP:mCherry ratio, weighted mean of sorted bins, harmonized to initial dataset scale) (arbitrary fluorescence ratio units); higher = stronger transcriptional activation. Particulars: beta-estradiol 1 µM; induction time 4 h. A digest of the protocol:
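In diploid yeast carrying a GFP reporter, barcoded protein tiles fused to an estradiol-inducible synthetic transcription factor were integrated at the URA3 locus. Cultures diluted 1:5 into SC with 1 uM beta-estradiol were kept at 30 °C for 4 hours, then sorted by GFP:mCherry ratio into 8 bins before barcode sequencing. Tiles with under 50 reads were excluded. The activation activity reported here is the read-weighted mean of bin median fluorescence, averaged across barcodes and linearly rescaled to the initial dataset.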

Regarding “REGGGEGGGAQDGSSAPKKKRLGRKERIKSKAAGGDTGGEGADGAAASPEGAG”, the “transcriptional activation domain activity” value was 39600.

Turning to “REGGRRGRGRARSRRQGGKREERGRTRKGRKGGENRPKREGGQGGGERARRRE”, the “transcriptional activation domain activity” value was 41300.

In the case of “REGHLFSCIYIMYCQILFRKVGWSSVFDCAFHVLLAMSAAGNFLVVGAIRCKC”, the “transcriptional activation domain activity” value is 37300.

In the case of “REGRKKGREAREKRSGGKGGKGGKGKGRATDGAEGAEEGAAAGARQPNGRNAK”, the “transcriptional activation domain activity” value is 22200.

For “RELEKREREREEREREERERELEKREREREQRGRELEKRERRGRRGSESWRRG”, the “transcriptional activation domain activity” value was 26100.

As for “RELKRMVQEAIRDIREKKSTLTVQHLKRLLFRVAALIICTPKCDHDLLHYLVI”, the “transcriptional activation domain activity” value worked out at 61800.

For “REQQQRNDFPEGTHRMKVVAERWKTLSDDQREISFISSLLYAYVHVELRLRLG”, the “transcriptional activation domain activity” value was 46500.

Regarding “RETDAWACGVVLYALCARRLPFGEGAARVEGESGGRIGREGGAREGAAARRHW”, the “transcriptional activation domain activity” value was 32400.

Consider “REYHGDTAEIKYGHKVVEIGEDKERGKARVRVEKDGEGGVKEEEVHEADYVVG”, for which the “transcriptional activation domain activity” value is 22600.

Take “REYNRMLRFYGVQDHQVKNTRLSVKEAFMLIIYRCVEVFCLFILSLPMIVLAS”: the “transcriptional activation domain activity” value stood at 58200.

Take “RFFIRVLSNLKIDRHNSMYCTLGRPITILNLILRGWYVVRKFIILLFSIVLLF”: the “transcriptional activation domain activity” value was 54100.

For the sequence “RFGGSARGGGTGVEPPAKGKKGGGEEREGGEGRKGKGGRGPGTRERKGKERER”, the “transcriptional activation domain activity” value was below 6570.

In the case of “RFISLAFFDVVSCSVWLSIYHLLVLRFFLDLQSCLSFLLLYIRPSFPCLLIPR”, the “transcriptional activation domain activity” value worked out at 50500.

“RFISTRSFLFIFLFDSFFFFSFFFLSLFFFFISFFSFSSFFFFIFTLYLSRAL”: the “transcriptional activation domain activity” value stood at 28300.

Consider “RFLFQWDLELALSLCLSHTLGIISLPYKSIFISILWLIQSSWQLLFFLFWQPL”, for which the “transcriptional activation domain activity” value stood at 70400.

Consider “RFLICDYLLIIAGLFNIVATSLTQVVVNLGLGRHIMDPSVFPNILQYSYYLWI”, for which the “transcriptional activation domain activity” value was 25000.

As for “RFLLAALLLFGPLIGSCPSMSMSLMITEFGLFCCACLLGFVHHLFFPIFVESR”, the “transcriptional activation domain activity” value worked out at 47600.

For the sequence “RFLLCLLCMELLLHFVYVGAINSSLPVWDSYTPAQLSLLSFQNLIIIWLKLLL”, the “transcriptional activation domain activity” value was found to be 36800.

With “RFLSFLLLLLVFFYPFVFFVLALVLCTFWSLFPSNTPLHSLVCRLQLLHPFVF”, the “transcriptional activation domain activity” value came out at 41400.

“RFMVVIVSLFPRLNYFMDAVGHVLSVYYFNHLACQWITTAITSLAIVLFALRT”: the “transcriptional activation domain activity” value came out at 53900.

As to “RFNLPICGEIKMYRGWTVIDLVHMVCINTACKISNLKHALRKLSISFTNLVKP”, the “transcriptional activation domain activity” value was 54700.

Take “RFRALRLLVIDDMIRLRDQSHCGWICTFLSSIELDVIQCINFRIWINMCPEFY”: the “transcriptional activation domain activity” value came out at 32600.

With “RFVTNILVILSDRVNMEQLLKRIRKKAADFYHFTDLWQWCCAQFVKLLRKVYN”, the “transcriptional activation domain activity” value was 55100.

As for “RFYVYLLILLGCIIWINQCQYATDRSGYQRGHSAVLRALFYRLCRLLQTAITP”, the “transcriptional activation domain activity” value came to 35000.

As to “RGAARCFCVYFFLSLWHFYENHIFFFCSLFFHSLLLCHFFFSFFCVALRLLAC”, the “transcriptional activation domain activity” value is 33800.

“RGAKEGARGGGENEKNEGDTGRSRAEGTRETESGAGASQQRAAREGTAGTQGR”: the “transcriptional activation domain activity” value is below 6570.

For the sequence “RGATPGRKPAAGGPRESAARAARGRGKGGGTGGEGRGRGRARGRGRTRGKRRT”, the “transcriptional activation domain activity” value stood at 54900.

In the case of “RGDEDADGDDDEGEGSGDKTGDAEAGAAPSSGAGGGSSNSKKNKKKKNKKKGK”, the “transcriptional activation domain activity” value came to 51900.

In the case of “RGDGAEDSNRKRRRRSRSPRRSPPDRARERSTTADDAKGTRHRDRSSHRHKDK”, the “transcriptional activation domain activity” value stood at 32600.

As to “RGDGMEERKGEKRGRKGGERGGRGEGGHRGRKGDTEGGRGTGEKRGGKGGKRG”, the “transcriptional activation domain activity” value worked out at 33500.

On to “RGDTAAPGAEDDVELHYVCFVKGGDGRLWELDGRRKGPLERGRLGEGEDVLSE”, for which the “transcriptional activation domain activity” value was determined as 27800.

As to “RGEGDSKSDGKSDGKSEDKAENKGEEAPLVSEKDLVILAEHDLNGRQIKNVIK”, the “transcriptional activation domain activity” value worked out at 11000.

For the sequence “RGEILESKFGRSSKPSPRILIVSNSKFYIVAQALVNHQVQISVERSVPLGAIK”, the “transcriptional activation domain activity” value is 51900.

Turning to “RGERGQGAGGRGEGEGRGAGGERERRGGEREEGRGRERDERQGGKRERERGQG”, the “transcriptional activation domain activity” value was 21800.

As for “RGFVVMLEGLFICGGLVIQAFLNLGLSHATGGVTWRFSLAFSCFFDLVVFFSI”, the “transcriptional activation domain activity” value worked out at 46600.

As for “RGGGGGGKRGSRAGSGIAADSKEKGNDGEVKLKDKEKGRSKEKKSGKEGGGAA”, the “transcriptional activation domain activity” value was found to be 35900.

Regarding “RGGGRADQGRRKSPARARSASASSQSSSRSRSASRDSDQSNRRSKATSPGGRG”, the “transcriptional activation domain activity” value was 32500.

For the sequence “RGGGRKKKEADGEDGETTPKKTPRKRAAKEAEDGDASPKKKGRPAKAKPRQEP”, the “transcriptional activation domain activity” value was 17900.

As for “RGGKGVEEERGEGGGRGEGERGQGGRGRGGRGAGARGRGGTGEEGEGAGGKQE”, the “transcriptional activation domain activity” value worked out at 51400.

On to “RGGNPSGNAGGAGRRAKKSKDRDRNKKKSKKNSGQSGDRSTSSSKNKNKKGGG”, for which the “transcriptional activation domain activity” value is below 6570.

Regarding “RGGRGRRNGGKERGKEKKGKKEEENDRRGKGKERKERRKNDGGKRREGREREK”, the “transcriptional activation domain activity” value worked out at 47600.

As to “RGGRRGRGERKREKEEKKRRKRKGKEKRATTEEGGRARRKEKKAVCGRRWSGG”, the “transcriptional activation domain activity” value stood at 46100.

For “RGINAPLIQIPLYNNDPWIQTTISDDYLLPPGWFDILFPTNFDLLKDIYLTAF”, the “transcriptional activation domain activity” value worked out at 60600.

“RGKQPYRWTIWIYLGTRYSCLLMFITFFILNHAGHALCKPLILMNYVFNIVSW”: the “transcriptional activation domain activity” value was 41700.

For the sequence “RGKSSSSSIGGAQEGAVRADETSHHHHHHHHQQQQQQQQQKQQQRHVQEQADI”, the “transcriptional activation domain activity” value worked out at 30600.

In the case of “RGKVVSRLRKVLQKTSFKPTRSLTDHWTWNEIAILIRFVLMLSFNNRGPVKSY”, the “transcriptional activation domain activity” value was determined as 43200.

Turning to “RGLKNVVVLPAVGERSLASCLAGGDLDGYVIRVLRMLVWFIAFSRDTYDIYIG”, the “transcriptional activation domain activity” value was determined as 69600.

Turning to “RGLVLCLCLCITLKTAFHMIAVYQPLHPLFTSIDLGHLQPQPFCKLGMILGIM”, the “transcriptional activation domain activity” value came to 65900.

As for “RGREDNEDGGRNKRRGGGRFEGRRGRGDRDGNRRRDTRDSRREDKSTANGDAS”, the “transcriptional activation domain activity” value was below 6570.

For “RGRLPCRYTIWIYSLTRVACLLGVIVCTVGMDVSTSYNCQLWVSSVATLFCVT”, the “transcriptional activation domain activity” value was determined as 70300.

As for “RGRRKWNWTVVLYFACRVTTLAAAVTQMTGFNFTSEISCKTWLILTRIFTNTS”, the “transcriptional activation domain activity” value is 48200.

As for “RGSLREDESQHIATGVEGVHEARDGGRRTSNARAEKTKRVATPVCLSAAHTRG”, the “transcriptional activation domain activity” value is 28600.

Consider “RGSVESDLIILAMTCTLDILMHLPRSVFYRRQLDLFLWLLRVIPSVKTTNSLN”, for which the “transcriptional activation domain activity” value amounted to 41400.

On to “RGSYRLFLIHARLICTIHPLHLPLLYFPAYSMCILYPTPTYITSCSLLAVSFV”, for which the “transcriptional activation domain activity” value came to 55700.

Take “RGTIRPGFLIYFFILFLWVFQIHCIMQIIVNRIALLHVSPTIVRRLKWGIFAI”: the “transcriptional activation domain activity” value amounted to 71800.

Source of the values: the supplement of paper PMC12636428.
